# Target: SARS-CoV-2 N protein C-terminal domain (NCTD) (SARS-CoV-2, UniProt P0DTC9 256-364)
# Assay: EMSA; […]; binding buffer not stated ([…]
# Details: protein: recombinant; tags: N-terminal His6-TEV site (pET28a); chain copies: 2; label: 5' IRDye-800CW
binder,measurement,value
CGGUUUCUCCG (ssRNA) [Oligo-U (SL5a G to U)],Kd,140 ± 29 nM

# From publication PMC9288159, “Identification of a guanine-specific pocket in the protein N of SARS-CoV-2”
